The values that follow are results of earlier work, collected in publication PMC3000922.

In general, Kd refers to the concentration at which binding is half-saturated.

The target of this data set is integrin β3 cytoplasmic tail (Homo sapiens) (UniProt P05106). Briefly: SPR. (In general: Surface plasmon resonance follows binding to a sensor surface in real time, without labels.)
Sequence of UniProt P05106 (P05106 742-788): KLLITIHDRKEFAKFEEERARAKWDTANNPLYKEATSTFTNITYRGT

Take “integrin αIIb cytoplasmic tail (from UniProt P08514)”: the Kd is 7 µM.
